Data taken from patent US20110275699.

Target: bacterially expressed USF-1, P22415
Sequence (P22415 whole entry, looked up): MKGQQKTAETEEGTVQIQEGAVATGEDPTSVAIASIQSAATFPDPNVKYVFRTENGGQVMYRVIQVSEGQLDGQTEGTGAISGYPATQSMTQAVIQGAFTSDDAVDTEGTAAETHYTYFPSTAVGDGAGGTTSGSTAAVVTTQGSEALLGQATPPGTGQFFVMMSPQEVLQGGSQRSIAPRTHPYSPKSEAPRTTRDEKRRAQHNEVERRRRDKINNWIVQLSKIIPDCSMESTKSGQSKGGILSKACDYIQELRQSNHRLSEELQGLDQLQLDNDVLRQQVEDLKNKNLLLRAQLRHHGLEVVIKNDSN

B1: P/CAF (Upstate), recombinant/purified enzyme (protein)
chain: MLEEEVYSQNSPIWDQDFLSASSRTSQLGIQTVINPPPVAGTISYNSTSSSLEQPNAGSSSPACKASSGLEANPGEKRKMTDSHVLEEAKKPRVMGDIPMELINEVMSTITDPAAMLGPETNFLSAHSARDEAARLEERRGVIEFHVVGNSLNQKPNKKILMWLVGLQNVFSHQLPRMPKEYITRLVFDPKHKTLALIKDGRVIGGICFRMFPSQGFTEIVFCAVTSNEQVKGYGTHLMNHLKEYHIKHDILNFLTYADEYAIGYFKKQGFSKEIKIPKTKYVGYIKDYEGATLMGCELNPRIPYTEFSVIIKKQKEIIKKLIERKQAQIRKVYPGLSCFKDGVRQIPIESIPGIRETGWKPSGKEKSKEPRDPDQLYSTLKSILQQVKSHQSAWPFMEPVKRTEAPGYYEVIRFPMDLKTMSERLKNRYYVSKKLFMADLQRVFTNCKEYNPPESEYYKCANILEKFFFSKIKEAGLIDK
in vitro acetylation of USF-1: USF-1 was acetylated in vitro by P/CAF (lane 3), and acetylation was not detected in the absence of P/CAF or acetyl CoA (lane 1 and 2)
